B1: 792-7: Cannabis terpene synthase gene product, amino acid SEQ ID NO: 12 (protein)
chain: MSPCEATIDEKRPNMPKFTPTIWGDYFMSSASNHHHSSLMETMENNNKESYEKIIEMKEQVKNKLLHGLHPLENPLETLEYIDDIQRLGLSYYFENEIEQNLEQFHNNYQNLIDFGDNNLYADALCFRLLRQQGYNIACDIFDKYKNEKGKFKESISSDIRGMLNLYEAAQMRVHGEKILDEALIFTTTHLESSVKTCQLSSPYLDLVKHALMHPIRKSLQRREARLYISLYHQLPSHEEILLTLAKLDFNLLQKLHQKELSYITRWWKEFDYKSKHSFIKDRIVECYFWVYGVFFEAETSQIRLIITKLIAILTIIDDAYDSFGTLEELEPFTQAIERWDICAIDTLPEYMKIFYMKLLEIYNEIEQFSKERSYCPSYAKKGVQSLIRAYFKEAKWLHTKYIPTLDEYMPVGVDSAGSFMLISMVFIGMGDIVTKHSMDWIFSNPQPKIIQTMAIVGRVMNDIGYHKSERKKSSGEIVASTVECYMKQYGVTGEEAIEKLSEQVKDSWKDLNEDLLNPITIPRPLLMQVLKLVRVNHEIYREGDGFTQPTLLKNLIHSLIINPIDF
modifications: Terpene Synthase Gene Amino acid sequence of the 45 identified gene products
B2: 795-1: Cannabis terpene synthase gene product, amino acid SEQ ID NO: 18 (protein)
chain: MITGVISSSTTIFKEQPEAIVRRSGNYKPTLWDAHFFKSLQVIYTEESYGKRINELKEDVRRILEKEAENPLVKLEQINDLSRLGISYHFEDQIKTILNLTFNNNNALWKKDNLYATALHFKLLRQYGFNPVSSEVFNAFKDQKKEFKESLSKDVKGMVCLYEASFYSFRGEPILDEARDFTTKHLKQYLMTRQCQTKSVDHDDDHDLVKLVEHALDLPLHWRLPRLEARWFIDMYAERNYDMNPTFLDFAKLDYNFVQSAYQKELKYISRWWSGSRLTERLPFARDRVVEIFYSAVALKYEAEFGFVRTVMTKIGLLLTLMDDIYDVYGTLDELQLFLGAIERWNINELDQLPDYMKILFVAFYNNVNEISYYVLKENGIHIIKYLKKALGDLCKCYMEEAKWFHSGHIPSLEEFIENGWKSITIPLCLIYHYCLITTSITEQDMEHLLQYPTILRVSGTVFRFIDDLGTSSDELERGDNPSSIQCYMREKGVSENESREHIWNLISEGWKEINEVKASNSPYSQVFIESAIDFVRGAMEMYHKGDGFGTNQDRYLKTKVVNMFFDPIPI
modifications: Terpene Synthase Gene Amino acid sequence of the 45 identified gene products
B3: T-AG2575-2: Cannabis ABC-G transporter gene product, amino acid SEQ ID NO: 56 (protein)
chain: MEVGDLYRAGNSLRNISLRSSTSSVWRGNNNNNNNKDEYFSKSRREDDINDEEALTWAALEKLPTYDRLRKGILTTSKGETTEVDVINLGFKQRKDLLQRLVNVADEDNESFLLKLKQRIQTVGIDLPTIEVRFENVKVEADVHVGSRALPSFINFCINIIEMLVSFLPILKSKKKHVTILDDVSGAIKPGRLTLLLGPPSSGKTTLLLTLAGKLASELKFSGRVTYNGHEMNEFIPQRTAAYISQHDVHIGEMTVRETLSFSARCQGVGTRYEMLAELSRREKEANIKPDPDIDIFMKATSTEGQKSSVVTDYVLKILGLEVCADTVVGDEMLRGISGGQRKRVTTGEMLVGPSGVLFMDEISTGLDSSTTYQIVNSLKQYVHIFNGTNVISLLQPAPETYDLFDDIILLSDGHIVYQGPRENVLEFFEFTGFKCPERKAIADFLQEVTSKKDQAQYWTRGDEAYRFVSAKEFVEAFKSFHVGQKIREYLSTPFDKTKSHPAALTTKNFGLNKMELLKACMSREYLIMKRNSFVHIFKIVQLSVMGLIHGTLFLRTKMHHRTLEDGTIYLGSLFFAALMIMFNGMSEIPMTIAKLPVFYKQRDLQFFPAWAYAVPSMLFKVPIAFLEVAVWIILTYYTTGLEPSVVRMFRLYFILVIVNQMASGLFRSIAALSRNMIIANTFGAFSLLLLFVLGGFVLSRDDINSGWIWAYWVTPLMYGQTGILVNEFRGSKWNKVTPNSTETLGIQVLKSKGFFTDSYWYWLGFGVLVAYTVLFNILYTLALNYLNSIEKSQALSNEDPENNDHEIQVGRETRTNEIQQTSSINNTGENQSKKKGMILPFEPHSITFNDVIYSVDMPQAMKNQGVVEDKLVLLKGVSGSFRPGVLTALMGISGAGKTTLMDVLAGRKTGGYIEGDIRISGYPKKQETFARISGYCEQNDIHSPHVTVYESLLYSAWLRLPTEVDSEKRKMFIEEVMELVELTPLRQALVGLPGVSGLSTEQRKRLTIAVELVANPSIIFMDEPTSGLDARAAAIVMRTVRNTVDTGRTVVCTIHQPSIDIFEAFDELFLMKRGGEEIYVGPLGRHSCHLINYFEAIEGVSKIKNGYNPGTWMLEVSSSAQEIALGVDFANIYKNSELCKRNKDLIKELSSPAPGSKDLYFPTQFSRSLNTQCIACLWKQRQSYWRNPLYTAVRFMFTTFIALIFGTVFWDLGSKRSNIQDLSNALGSMYCAVLFIGIQNASSVQPVVSVERSVFYREKAAGMYSAFPYSFGQLVVEIPYILCQSVVYCLIVYAMIGFEWTAIKFFWFLFFSFFSMLYFTFYGMMAVGITPNNHIASIVSSAFYSVWNLFSGFIIPRTRMPVWWKWYYWGCPVSWTLYGLLVSQYGDVDDVINAVTGETVKQYLRSYLGYKHDFIGVVAVVNVLFALLFGSIFAFSVKILNFQNR
modifications: ABC+PTR Transporter amino acid sequence (of the 12 identified gene products)
B4: 796-3: Cannabis terpene synthase gene product, amino acid SEQ ID NO: 23 (protein)
chain: MDTQRKLQAEQLSCPTKSHELIFDHKSDHQRRSANYTPTIWKYDFLESLNNKYDSEEYKKRSEKLIEDVRHNIVETKDLKGMLELINTIRKLSLTYHFEDEVKKVLDKISSSNYYYNNKDIKDPRLVGDDLYLAALYFRLLRLHGYQVSQDIFVGYNSVDYKKGGGTHNITSTEVKVMIELLEASHVAFECEDTLTEAKALMEENLKIAFPDNCNKYIPKHEVVHALELPSHWRVQWFDVKWQIEAYRQHGDPDTNTTTTTSLLVDLAKLNFNIIQATLQKDLRELSSWWKNVGLSEKLEFARDRLVESFMCTVGLAFQPEYKSLRKCLTKVVNFILIVDDVYDVYGSLEELRHFTNAVNRWDVRETEELPDCMKICFQALYHTTCEIASEIETKNGCKLVLPNLKGAWTDFCKSLLMEAEWYHKGYIPSLEEYLSNAWISSSGPLLLLHSYLAMPNQTNTASSLDISKDLVYNISLIIRLCNDLGTSAAEQERGDAASSIVCYMQETKSSEEEARKHIREMIRKTWKKINKTCFSTCGSSSLSLSFIDIALNTARVAHSLYQSGDAFSAQHTDYKTHILSLLVHPLIPNK
modifications: Terpene Synthase Gene Amino acid sequence of the 45 identified gene products

Tests used:
[1] = Terpene synthase activity assay with GPP; type: biochemical; conditions: TPS expressed in E. coli; 10 μM GPP, overnight at 30° C., SPME GC-MS
Method: Putative terpene synthase genes were synthesized by the TWIST Co., and cloned into Novagen pET-28a(+) with a 6×His tag at its' N-terminus. The recombinant plasmid was then sequenced for authentication and transformed into BL21(DE3) pLysS and pLysE strains of E. coli (Agilent Technologies) for heterologous expression. An overnight culture was used to inoculate a 20-200 mL culture, induced with 0.1 mM IPTG at an OD 600 nm >0,8 for initiation of recombinant protein translation then incubated at 18° C. and 250 RPM overnight. The cells were collected by centrifugation and the recombinant enzymes were extracted either as a crude extract or purified on a Ni-NTA agarose resin as previously described [Gonda I. et al., The Plant Journal (2013) 61, 458-472].
To determine the terpene synthase catalytic activity, reaction mixtures containing 100 μl of protein extract or purified protein were incubated overnight at 30° C. with either 10 μM geranyl diphosphate (GPP) or farnesyl diphosphate (FPP), in a final volume of 200 μl using a buffer containing 50 mM bis-tris, pH 6.9, 1 mM DTT, 10% (v/v) glycerol, 0.1 mM of MnCl2 and 10 mM of MgCl2. The volatiles produced were extracted by solid-phase microextraction (SPME) according to the methodology previously described [Iijima Y. et al., Plant Physiol (2004) 136: 3724-3736]. As controls, reactions were carried out without the cofactors MnCl2 and MgCl2, or protein extracts were heat inactivated by incubation at 100° C. for 5 minutes, or a short peptide product of an empty pET100 vector was utilized.
For solid-phase microextraction (SPME) analysis, a 57298-U SPME fiber assembly Divinylbenzene/Carboxen/Polydimethylsiloxane (DVB/CAR/PDMS, Supelco) needle size 23 ga, StableFlex, was used with an autosampler and analyzed by GC-MS as previously described [Davidovich-Rikanati R. et al., Nature Biotech (2007) 25:899-901; Davidovich-Rikanati R. et al., Plant J (2008) 56:228-238]. The SPME fiber were adsorbed for 30 min. by automatic HS-SPME at 50° C. followed by injection of the fiber into a GC-MS injection port for 5 min. (splitless), for desorption of the volatiles. Chiral separation was conducted on a Restek Rt™-bDEXsm column (30 m length 0.25 mm i.d., 0.25 μm film thickness, 2,3-di-O-methyl-6-O-tert-butyl dimethylsilyl beta cyclodextrin added into 14% cyanopropylphenyl/86% dimethyl polysiloxane). Helium (0.8 ml min-1) was used as a carrier gas with splitless injection. The injector temperature was 250° C., and the detector temperature was 230° C. The following conditions were used: initial temperature 40° C. for 5 min., followed by a ramp of 2° C./min. to 110° C., and 10° C./min up to 230° C. (5 min.). A quadrupole mass detector with electron ionization at 70 eV was used to acquire the MS data in the range of 41 to 350 m/z. The identification of the volatiles was assigned by comparison spectral data with the W10N11 and HPCH2205 GC-MS libraries and with authentic standard when available.

[2] = system: yeast cells; assay: Yeast growth (turbidity A600) in the presence of CBD; type: cell-based, Saccharomyces cerevisiae (strain Y1HGold); conditions: 0.5 mM CBD, 7-12 hours, FIG. 2
Method: The genes were expressed in yeast and tobacco. For yeast, the ABC and PTR Transporter genes were synthesized by the TWIST Co, cloned and expressed (individually) in the yeast expression vector pESC-URA (Agilent Technologies) for expression under the yeast native gal-10 promoter. Competent Saccharomyces cerevisiae (strain Y1HGold, CloneTech) cells were prepared, transformed by each of the resulting vector and selected on yeast synthetic media lacking Uracil as previously described [GietzR. D., Methods Mol. Biol. (2014) 1205:1-12].
An alternative method is to measure the yeast growth as a function of turbidity. Transformed yeast cells were grown on URA-glucose broth at 30° C. at 200 RPM, and after 24 hours 100 μl was used to inoculate 5 ml of URA-galactose broth in the same conditions till O.D.600 of 1.5. The yeast was further diluted to OD600=0.05 with 10 ml URA-galactose, and divided into two 5 ml aliquots into separate 50 ml falcon tubes. The first falcon (control) was added 78 μl acetonitrile (the solvent that the CBD was dissolved in), and the second one was added 78 μl CBD solution in acetonitrile (final CBD concentration=0.5 mM). […]

| Molecule | Monoterpenes produced with GPP [1] | inhibition of yeast growth in response to CBD, transporter-expressing yeast vs control yeast [2] |
| --- | --- | --- |
| B1 | beta-myrcene/geraniol |  |
| B2 | geraniol |  |
| B3 |  | reduced inhibition of growth |
| B4 | geraniol |  |

Source: patent US20220256794A1, “TERPENE SYNTHASES AND TRANSPORTERS” (The State of Israel, Ministry of Agriculture & Rural …, priority 2019, published 2022)
